Measurements as given in US20020086331.

Biological target: T1, Nit domain of C. elegans NitFhit, O76463
T1 chain: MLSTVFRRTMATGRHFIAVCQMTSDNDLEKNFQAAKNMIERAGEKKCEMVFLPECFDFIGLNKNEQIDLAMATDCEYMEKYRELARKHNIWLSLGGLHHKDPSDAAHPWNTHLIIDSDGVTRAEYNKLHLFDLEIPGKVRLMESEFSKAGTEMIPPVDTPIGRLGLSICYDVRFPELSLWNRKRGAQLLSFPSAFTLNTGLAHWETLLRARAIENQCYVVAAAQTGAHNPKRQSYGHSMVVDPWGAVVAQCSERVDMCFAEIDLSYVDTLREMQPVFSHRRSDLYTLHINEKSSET

B1: Fhit domain of C. elegans NitFhit (protein)
chain: GGLKFARFNIPADHIFYSTPHSFVFVNLKPVTDGHVLVSPKRVVPRLTDLTDAETADLFIVAKKVQAMLEKHHNVTSTTICVQDGKDAGQTVPHVHIHILPRRAGDFGDNEIYQKLASHDKEPERKPRSNEQMAEEAVVYRNLM
In the case of B1, the “activity of worm NitFhit on ApppBODIPY relative to human Fhit (kcat/Km)” value is reported as “worm NitFhit displays only 22% of the activity of human Fhit on ApppBODIPY” and the “activity of worm NitFhit on GpppBODIPY relative to human Fhit (kcat/Km)” value is reported as “it displays 109% of the activity of human Fhit on GpppBODIPY”.
